We go through 25 molecules from patent US20220195015A1 (published 2022).

Substitutions are numbered along the chain they refer to.

The target in this assay is SARS-CoV-2 spike receptor binding domain (RBD), wild type (SARS-CoV-2, UniProt P0DTC2 319-539). Put plainly: ELISA on coated RBD protein. A general note: In an ELISA, binding on a coated surface is turned into a signal by an enzyme label.

B1: C708 (antibody, V domains shown)
VH: EVQLVESGGGLVQPGGSLRLSCAASGFSFSTYWMSWVRQAPGKGLEWVADIKQDGSEKYFVDSVKGRFTISRDNAKNSLYLHLNSLRAEDTAVYYCAREMAGSGNYYWFGYGMDVWGQGTTVTVSS
VL: IRMTQSPSSVSASVGDRVTITCRASQGISSWLAWYQQKPGKAPKLLIYAASSLQSGVPSRFSGSESGTDFTLTISSLQPEDFATYYCQQANSFPLTFGGGTKVEIK
B1 returned an EC50 of 130 ng/mL.

B2: C707 (antibody, V domains shown)
VH: EVQLVESGGGLVKPGGSLRLSCAASGFTFSSYSMNWVRQAPGKGLAWVSSISSSNNIIYYADSVKGRFTISRDDAKDSLYLHMKSLRADDTAVYFCARVPSWAPYQLLPGPFDYWGQGILVTVSS
VL: IRMTQSPSSLSASVGDRVTITCQASQAIASYLSWYQHKPGRAPKLLIYDASNLEIGVPSRFSGSGSGTDFTFTISSLQSEDNATYYCQQYESLPGTFGGGTKVEIK
Regarding B2, a half-maximal response (EC50) required 26 ng/mL.

B3: C049 (antibody, V domains shown)
VH: QVQLQESGPGLVKPSETLSLTCTVSGGSVSSGTFYWSWIRQPPGKGLEWIGYIHYSGSTNYNPSLKSRVTISVDTSKNQFSLRLSSVTAADTAVYYCARESFYYDRSGYYGSDAFDIWGQGTMVTVSS
VL: DIQMTQSPSTLSSSVGDRVTITCRASQNISRWLAWYQQKPGKAPKLLIYKASTLESGVPSRFSGSGSGTKFTLTISSLQPDDFATYYCQQYNSYLYTFGQGTKLEIK
Regarding B3, it took 4.09 ng/mL to reach a half-maximal effect (EC50).

B4: C043 (antibody, V domains shown)
VH: QLVQSGPEVKKPGTSVKVSCKASGFTFYNSAVQWVRQARGQRLEWVGWIVVGSGNTDYAQKFQERVTMTRDLSTNTAYMEVNSLRSEDTAVYYCAAPYCSGGTCLDGFDIWGQGTMVTVSS
VL: EIVLTQSPGTLSLSPGERGTLSCRASQSVRSNYLAWYKQRPGQAPRLLVYGASSRATGIPDRFSGSGSGTDFTLTISRLEPEDFAVYYCQQYGSSPWTFGQGTKVEIK
Molecule B4 came in with an EC50 of 12.1 ng/mL.

B5: C054 (antibody, V domains shown)
VH: EVQLVESGGGLIQPGGSLRLSCAASGFTVSNNYMSWVRQAPGKGLEWVSVIYSGGSTYDADSVKGRFTISRDNSKNTLYLQMNSLSAEDTAVYYCAREGDVEGYYDFWSGYSRDRYYFDYWGQGTLVTVSS
VL: QSALTQPASVSGSPGQSITISCTGTSSDVGGYNYVSWYQQHPGKAPKLMIYDVSNRPSGVSNRFSGSKSGNTASLTISGLQAEDEADYYCSSYTSSSARVFGTGTKVTVL
In turn, B5 came in with an EC50 of 1.58 ng/mL.

B6: C050 (antibody, V domains shown)
VH: EVQLVESGGGLFQPGGSLRLSCAASGFSVRNNYVSWVRQAPGKGLEWVSVIYSGGTTYYADSVKGRFTISRDISENTLYLQMNSLRAEDTAVYYCAREGDVEGLHDFWSGYSRDRYYFDYWGQGTLVTVSS
VL: B5 VL with T19I, S27G, V29I, N55F, G70D, Y93F, S95G, S96N, S97N, A98T
Consider B6, for which the midpoint of the response, the EC50, lay at 1.93 ng/mL.

B7: C051 (antibody, V domains shown)
VH: EVQLVESGGGLIQAGGSLRLSCAASGFGVRNNYMSWVRQAPGKGLEWVSVIYSGGTTYYADSVKGRFTISRDNSKNTVFLQMNSLRAEDTAVYYCAREGDVEGFSDLWSGYSRDRYYFDYWGQGTLVTVSS
VL: B5 VL with I20F, H41Y, M49L, S54T, N62D, Y93F, S97N, A98T
B7 came in with an EC50 of 1.65 ng/mL.

B8: C053 (antibody, V domains shown)
VH: B5 VH with T28I, E46D, S56T, D59Y, S86R, Y105H, F107S
VL: B5 VL with T25S, Y34F, K44R, A82V, S95N, S96N, S97N, A98T
B8 had an EC50 of 1.53 ng/mL.

B9: C052 (antibody, V domains shown)
VH: B5 VH with Q13R, T28S, S56T, D59Y, T68N, L78V, S86R, T125A
VL: B5 VL with S91N, S96N, S97N, A98T
As to B9, the EC50 stood at 1.23 ng/mL.

B10: C144 (antibody, V domains shown)
VH: B5 VH with D59Y, N73K, S84R, S86R, D100E, Y105N
VL: B5 VL with A98T
B10 came in with an EC50 of 1.83 ng/mL.

B11: C703 (antibody, V domains shown)
VH: EVQLLESGGGLVQPGGSLRLSCAGSGFTFSHYALSWVRQAPGKGLEWVSCISGTGGNSHYADSVKGRFTSSRDNSKNILYLQMNSLRAEDTAVYFCAKGGDFWSGYLIPFDSWGQGTLVTVSS
VL: SYELTQSPSVSVAPGKTARITCGGDSIGSKNVHWYQQKPGQAPVLVMYYDNDRPSGIPERFSGYNSGNTATLSISRVEAGDEADYYCLVWDGSGDPWVFGGGTKLTVL
Regarding B11, the EC50 came to 10.9 ng/mL.

B12: C044 (antibody, V domains shown)
VH: EVQLVESGGGLVQPGGSLRLSCAASGFTFSSYSMNWVRQAPGKGLEWVSYISSSSSTIYYADSVKGRFTISRDNAKNSLYLQMNSLRDEDTAVYYCAREAHDGALTDYGDYLNWFDPWGQGTLVTVSS
VL: SYELTQPPSVSVAPGKTARITCGGNNIGSKSVHWYQQKPGQAPVLVIYYDSDRPSGIPERFSGSNSGNTATLTISRVEAGDEADYYCQVWDSSSDHLYWVFGGGTKLTVL
Molecule B12 returned an EC50 of 1820 ng/mL.

B13: C045 (antibody, V domains shown)
VH: B12 VH with S31T, Y59H
VL: B12 VL with N25T, S31N, S51N, S92T, S93T, L97F
Molecule B13 came in with an EC50 of 7 ng/mL.

B14: C098 (antibody, V domains shown)
VH: EVQLVESGGGLIQPGGSLRLSCAASGFTVSSNYMSWVRQAPGKGLEWVSVIYSGGSTYYADSVKGRFTISRDNSKNTLYLQMNSLRAEDTAVYYCARDLYSSGGTDIWGQGTMVTVSS
VL: not shown
Consider B14, for which the EC50 came to 7.7 ng/mL.

B15: C099 (antibody, V domains shown)
VH: B14 VH with F27I, I51M, S53A, Y58F, N73D, Y79F, V92I
VL: EIVLTQSPGTLSLSPGERATLSCRASQSIGSSYLAWYQQKPGLAPRLLIYGASRRATGIPDKFSGSGSGADFTLTISRLEPEDFAVYYCQQYGSSPGTFGQGTKVEIK
Consider B15, for which a half-maximal effect (EC50) was put at 2.45 ng/mL.

B16: C709 (antibody, V domains shown)
VH: QVQLVQSGAEVRKPGASVKVSCMASGYTFNTYDINWVRQGTGQGLEWMGWMNPNSGNTGHAQKFQGRVAMTVNTSMNTAYMELSSLRSEDTAVYYCARGADMLNVAVGADFDYWGQGTLVTVSS
VL: QSALTQPPSASGSPGQSVTISCTGTSSDVGGYNFVSWFQQHPGKAPKLMIYEVSKRPSGVPDRFSGSKSANTASLTVSGLQAEDEADYFCSSYAGSNNWVFGGGTKLTVL
Turning to B16, the concentration for a half-maximal effect (EC50) is 7.56 ng/mL.

B17: C097 (antibody, V domains shown)
VH: QVQLQESGPGLVKPSQTLSLTCTVSGGSISSGPYYWSWIRQHPGKGLEWIGYIYYSGSTYYNPSLKSRVTISVDTSKKQFSLNLNSVTAADTAVYYCARVWQYYDSTGSFDYWGQGTLVTVSS
VL: DIVMTQSPLSLPVTPGEPASISCRSSRGLLHSNGYNYLDWYLQKPGQSPQLLIYLGSNRASGVPDRFSGSGSVTDFTLNISRVEAEDVGVYYCMQALQTPFTFGPGTKVDIK
Molecule B17 had an EC50 of 3.45 ng/mL.

B18: C096 (antibody, V domains shown)
VH: EVQLVESGGGLVKPGGSLRLSCVASGFTFRNAWMNWVRQAPGKGLEWVGRIKANSDGGTIDYAEPVQGRFTISREDSRNSLYLQMNSLKTEDTAVYYCTTGPQYDDFGHSYIVDSWGPGTLVTVSS
VL: DIVMTQSPLSLPVTLGEPASISCRSSQSLLHSNGFHFLEWYLQKPGQSPQLLIYVGSNRASGVPDRFSGSGSGTDFTLKISRVEAEDVGVYYCMQTLQTPLTFGGGTKVEIK
On to B18, for which the EC50 turned out to be 5.18 ng/mL.

B19: C706 (antibody, V domains shown)
VH: EVQLVESGGGLVKPGGSLRLSCAASGFTFSNVWMSWVRQAPGKGLEWVGRIKSKIDGGTTEYAAPVKGRFIISRDDSKNTLSLQMNSLKTEDTAVYYCTTDHGREPPVHWGQGTLVTVSS
VL: EIVLTQSPGTLSLSPGERASLSCRARQSVYSNYLAWYQHKSGQAPRLLFYGASSRATDIPDRFSASGSGTDFTLTISRLEPEDFAVYYCLQYGPSPTFGPGTRLEIK
On to B19, for which a half-maximal response (EC50) required 73.5 ng/mL. Against the preceding molecule, the EC50 is about 14-fold higher.

B20: C704 (antibody, V domains shown)
VH: VQLVESGGGVVQPGRSLRLSCAASGFTFSRYGMHWVRQAPGKGLEWVAVSSYDGSNEYYANSVKGRFTISRDNSKNTLYLQMNSLRAEDTAVYYCAKTGASYCGGDCPFHFDYWGQGTLVTVSS
VL: IRMTQSPSSLSASVGDRVTITCQASQDINNYLNWYQQKPGKAPKLLIYDASDLETGVPSRFSGGGSGTDFTFTISSLQPEDIATYYCQHYNNLPITFGQGTRLEIK
B20 yielded an EC50 of 13.4 ng/mL.

B21: C095 (antibody, V domains shown)
VH: VQLVEAGGGVVQPGRSLRLSCAASGLAFSIYGMHWVRQAPGKGLEWVAIVAQDGSKKYYADSVKGRFTISRDNSKNTLYLEMNSLRTEDTAVYYCVKEGRPSDTVVVVAFDYWGQGSLVTVSS
VL: DIQLTQSPSSLSASVGDRVTITCRASQSISNYLNWYQQKPGKAPKVIIYAASSLQSGVPSRFSGSGSGTDFTLTISSLQPEDFATYYCQQSHSIPRTFGQGTKVEIK
As to B21, the midpoint of the response, the EC50, lay at 1.1 ng/mL.

B22: C046 (antibody, V domains shown)
VH: EVQLVESGGGLAQPGRSLRLSCAASGFTFDDYAMHWVRQAPGKGLEWVSGINWNSGSLGYADSVKGRFTISRGIAKNSLYLQMNSLRPEDTAFYYCAKAGVRGIAAAGPDLNFDYWGQGTLVTVSS
VL: EIVLTQSPATLSLSPGERATLSCRASQSVSSYLAWYQQKPGQAPRLLIYDASNRATGIPARFIGSGSGTDFTLTISSLEPEDFAVYYCQQRITFGQGTRLEIK
For the molecule B22, the EC50 was 4.02 ng/mL.

B23: C048 (antibody, V domains shown)
VH: VQLQESGPGLVKPSETLSLTCAVSGGSVSSGNYYWNWIRQPPGKGLEWIGYIYYSGSTNYNPSLKSRVTISVDTSKNQFSLKLNSVTAADTAVYHCARETYYYDSSGYYISDAFDIWGQGTMVTVSS
VL: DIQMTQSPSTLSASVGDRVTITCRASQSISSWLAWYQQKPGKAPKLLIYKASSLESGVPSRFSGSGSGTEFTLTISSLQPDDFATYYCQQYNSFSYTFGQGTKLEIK
For B23, the EC50 was 4.8 ng/mL. This EC50 and that of the molecule before are within 1.5-fold of each other.

B24: C047 (antibody, V domains shown)
VH: QVQLQESGPGLVKPSETLSLTCTVSGGSISSTTYYWDWIRQSPGKGLEWIGSIFYTGITYYSPSLKSRVTISVDTSKNQFSLRLNSMTAADTAVYYCARRLRQLWFGPWFDPWGQGTLVTVSS
VL: QSALTQPPSASGSPGQSVTISCTGTRSDVGDYNYVSWYQQHPDKAPKLIIYEVTKRPSGVPDRFSGSKSGNTASLTVSGLQAEDEADYYCSSYAGSNNVMFGGGTKLTVL
As for B24, the response was half-maximal at 11.1 ng/mL (EC50).

B25: C710 (antibody, V domains shown)
VH: B24 VH with T23I, S30N, S67T
VL: B24 VL with Y51F, N97S
B25: the EC50 worked out at 17.8 ng/mL.

Broadly, the EC50 is the concentration at which the effect is half-maximal. Read a low EC50 as greater potency.
